Experimental data from PMC12866179, “Oxidized MIF is an Alzheimer’s disease drug target relaying external risk factors to tau pathology” (Cell Reports Medicine, 2025).

Target: recombinant human MIF-C80W (human)
Assay: SEC-MALS; 100 uM MIF (WT or C80W) in 20 mM phosphate buffer, with or without 100 uM PAV-174; TSKgel G2000SWXL, 0.5 mL/min, 25 C; UV 280 nm and miniDawn Treos light scattering

stoichiometry N: 3
Substance: recombinant human MIF-C80W (natural protein)
